Test results: PMC4497506 (Journal of medicinal chemistry, 2015)

Target: wild-type HIV-1 YU-2 Env gp120, soluble monomeric (HIV-1 YU-2, UniProt P35961)

B1: mAb F105 (antibody, V domains shown)
VH: QVQLQESGPGLVKPSETLSLTCTVSGGSISSHYWSWIRQSPGKGLQWIGYIYYSGSTNYSPSLKSRVTISVETAKNQFSLKLTSMTAADTAVYYCARGPVPAVFYGDYRLDPWGQGTLVTVSS
VL: EIVLTQSPGTLSLSAGERATLSCRASQSVSSRYLAWYQQKPGQAPRLLIYGASSRATGIPDRFSGSGSGTDFTLTISRVEPEDFAVYYCQQYDNSVCTFGQGTKLEIK
Kd: 24 nM
